According to US20180016354A1 (Merck KGaA, published 2018):
Where a chain is given by its changes, count along the chain named.

B1: Domain-exchanged one-armed anti-EGFR antibody (CH3-KiH domain-exchanged hu425 Fab on SEED AG heavy chain, with huFc_GA SEED) (antibody)
heavy: QVQLVQSGAEVKKPGASVKVSCKASGYTFTSHWMHWVRQAPGQGLEWIGEFNPSNGRTNYNEKFKSKATMTVDTSTNTAYMELSSLRSEDTAVYYCASRDYDYDGRYFDYWGQGTLVTVSSASTKGEPQVYTLPPSRDELTKNQVSLYCLVKGFYPSDIAVEWESNGQPENNYKTTPPVLDSDGSFFLYSKLTVDKSRWQQGNVFSCSVMHEALHNHYTQKSLSLSKSCDKTHTCPPCPAPELLGGPSVFLFPPKPKDTLMISRTPEVTCVVVDVSHEDPEVKFNWYVDGVEVHNAKTKPREEQYNSTYRVVSVLTVLHQDWLNGKEYKCKVSNKALPAPIEKTISKAKGQPFRPEVHLLPPSREEMTKNQVSLTCLARGFYPKDIAVEWESNGQPENNYKTTPSRQEPSQGTTTFAVTSKLTVDKSRWQQGNVFSCSVMHEALHNHYTQKTISLSPGK
chain: EPKSSDKTHTCPPCPAPELLGGPSVFLFPPKPKDTLMISRTPEVTCVVVDVSHEDPEVKFNWYVDGVEVHNAKTKPREEQYNSTYRVVSVLTVLHQDWLNGKEYKCKVSNKALPAPIEKTISKAKGQPREPQVYTLPPPSEELALNELVTLTCLVKGFYPSDIAVEWLQGSQELPREKYLTWAPVLDSDGSFFLYSILRVAAEDWKKGDTFSCSVMHEALHNHYTQKSLDRSPGK
light: DIQMTQSPSSLSASVGDRVTITCSASSSVTYMYWYQQKPGKAPKLLIYDTSNLASGVPSRFSGSGSGTDYTFTISSLQPEDIATYYCQQWSSHIFTFGQGTKVEIKRTVAEPQVYTLPPSRDELTKNQVSLTCLVKGFYPSDIAVEWESNGQPENNYKTTPPVLDSDGSFFLTSKLTVDKSRWQQGNVFSCSVMHEALHNHYTQKSLSLSGEC
notes: One Fab arm only (monovalent); also called One-armed CH3 domain-exchanged anti-EGFR antibody; one-armed domain-exchanged anti-EGFR antibody
B2: one-armed anti-EGFR SEED antibody with SEED CH3 domain-exchanged Fab, Variant 2 (antibody)
heavy: QVQLVQSGAEVKKPGASVKVSCKASGYTFTSHWMHWVRQAPGQGLEWIGEFNPSNGRTNYNEKFKSKATMTVDTSTNTAYMELSSLRSEDTAVYYCASRDYDYDGRYFDYWGQGTLVTVSSASTKGEPQVYTLPPPSEELALNELVTLTCLVKGFYPSDIAVEWLQGSQELPREKYLTWAPVLDSDGSFFLYSILRVAAEDWKKGDTFSCSVMHEALHNHYTQKSLDRSKSCDKTHTCPPCPAPELLGGPSVFLFPPKPKDTLMISRTPEVTCVVVDVSHEDPEVKFNWYVDGVEVHNAKTKPREEQYNSTYRVVSVLTVLHQDWLNGKEYKCKVSNKALPAPIEKTISKAKGQPFRPEVHLLPPSREEMTKNQVSLTCLARGFYPKDIAVEWESNGQPENNYKTTPSRQEPSQGTTTFAVTSKLTVDKSRWQQGNVFSCSVMHEALHNHYTQKTISLSPGK
light: DIQMTQSPSSLSASVGDRVTITCSASSSVTYMYWYQQKPGKAPKLLIYDTSNLASGVPSRFSGSGSGTDYTFTISSLQPEDIATYYCQQWSSHIFTFGQGTKVEIKRTVAPEVHLLPPSREEMTKNQVSLTCLARGFYPKDIAVEWESNGQPENNYKTTPSRQEPSQGTTTFAVTSKLTVDKSRWQQGNVFSCSVMHEALHNHYTQKTISLSGEC
chain: B1 chain
notes: hu425 Fv; one Fab arm only; also called CH3-SEED variant 2
B3: Unengineered one-armed anti-EGFR antibody (CH1/CL hu425 Fab on SEED AG heavy chain, with huFc_GA SEED) (antibody)
heavy: QVQLVQSGAEVKKPGASVKVSCKASGYTFTSHWMHWVRQAPGQGLEWIGEFNPSNGRTNYNEKFKSKATMTVDTSTNTAYMELSSLRSEDTAVYYCASRDYDYDGRYFDYWGQGTLVTVSSASTKGPSVFPLAPSSKSTSGGTAALGCLVKDYFPEPVTVSWNSGALTSGVHTFPAVLQSSGLYSLSSVVTVPSSSLGTQTYICNVNHKPSNTKVDKKVEPKSCDKTHTCPPCPAPELLGGPSVFLFPPKPKDTLMISRTPEVTCVVVDVSHEDPEVKFNWYVDGVEVHNAKTKPREEQYNSTYRVVSVLTVLHQDWLNGKEYKCKVSNKALPAPIEKTISKAKGQPFRPEVHLLPPSREEMTKNQVSLTCLARGFYPKDIAVEWESNGQPENNYKTTPSRQEPSQGTTTFAVTSKLTVDKSRWQQGNVFSCSVMHEALHNHYTQKTISLSPGK
chain: B1 chain
light: DIQMTQSPSSLSASVGDRVTITCSASSSVTYMYWYQQKPGKAPKLLIYDTSNLASGVPSRFSGSGSGTDYTFTISSLQPEDIATYYCQQWSSHIFTFGQGTKVEIKRTVAAPSVFIFPPSDEQLKSGTASVVCLLNNFYPREAKVQWKVDNALQSGNSQESVTEQDSKDSTYSLSSTLTLSKADYEKHKVYACEVTHQGLSSPVTKSFNRGEC
notes: One Fab arm only (monovalent); also called unengineered Fab one-armed anti-EGFR; control antibody
B4: one-armed anti-EGFR SEED antibody with SEED CH3 domain-exchanged Fab, Variant 1 (antibody)
heavy: QVQLVQSGAEVKKPGASVKVSCKASGYTFTSHWMHWVRQAPGQGLEWIGEFNPSNGRTNYNEKFKSKATMTVDTSTNTAYMELSSLRSEDTAVYYCASRDYDYDGRYFDYWGQGTLVTVSSASTKGPEVHLLPPSREEMTKNQVSLTCLARGFYPKDIAVEWESNGQPENNYKTTPSRQEPSQGTTTFAVTSKLTVDKSRWQQGNVFSCSVMHEALHNHYTQKTISLSKSCDKTHTCPPCPAPELLGGPSVFLFPPKPKDTLMISRTPEVTCVVVDVSHEDPEVKFNWYVDGVEVHNAKTKPREEQYNSTYRVVSVLTVLHQDWLNGKEYKCKVSNKALPAPIEKTISKAKGQPFRPEVHLLPPSREEMTKNQVSLTCLARGFYPKDIAVEWESNGQPENNYKTTPSRQEPSQGTTTFAVTSKLTVDKSRWQQGNVFSCSVMHEALHNHYTQKTISLSPGK
light: DIQMTQSPSSLSASVGDRVTITCSASSSVTYMYWYQQKPGKAPKLLIYDTSNLASGVPSRFSGSGSGTDYTFTISSLQPEDIATYYCQQWSSHIFTFGQGTKVEIKRTVAEPQVYTLPPPSEELALNELVTLTCLVKGFYPSDIAVEWLQGSQELPREKYLTWAPVLDSDGSFFLYSILRVAAEDWKKGDTFSCSVMHEALHNHYTQKSLDRSGEC
chain: B1 chain
notes: hu425 Fv; one Fab arm only; also called CH3-SEED variant 1
B5: one-armed anti-EGFR SEED antibody with Charge pair CH3 domain-exchanged Fab, Variant 1 (antibody)
heavy: B1 heavy with D138K, L140M, Y148T, D181K
light: B1 light with D122E, L124M, K158D, T173Y, K175D
chain: B1 chain
notes: hu425 Fv; one Fab arm only; also called Charge pair variant 1
B6: one-armed anti-EGFR SEED antibody with Charge pair CH3 domain-exchanged Fab, Variant 2 (antibody)
heavy: B1 heavy with D138E, L140M, Y148T, K174D, K191D
light: B1 light with D122K, L124M, D165K, T173Y
chain: B1 chain
notes: hu425 Fv; one Fab arm only; also called Charge pair variant 2
B7: one-armed anti-EGFR SEED antibody with Azymetric CH3 domain-exchanged Fab, Variant 1 (antibody)
heavy: B1 heavy with T132V, L133Y, D138E, L140M, Y148T, F187A, Y189V
light: B1 light with T116V, D122E, L124M, T132L, K158L, T160W, T173Y
chain: B1 chain
notes: hu425 Fv; one Fab arm only; also called hu425 CH3-Azymmetric variant 1
B8: one-armed anti-EGFR SEED antibody with KiH2 CH3 domain-exchanged Fab, Variant 1 (antibody)
heavy: B1 heavy with Y148W
light: B1 light with T132S, L134A, T173V
chain: B1 chain
notes: hu425 Fv; one Fab arm only; also called KiH2 variant 1
B9: one-armed anti-EGFR SEED antibody with Azymetric CH3 domain-exchanged Fab, Variant 2 (antibody)
heavy: B1 heavy with T132V, D138E, L140M, Y148L, K174L, T176W
light: B1 light with T116V, L117Y, D122E, L124M, F171A, T173V
chain: B1 chain
notes: hu425 Fv; one Fab arm only; also called hu425 CH3-Azymmetric variant 2
B10: one-armed anti-EGFR SEED antibody with KiH2 CH3 domain-exchanged Fab, Variant 2 (antibody)
heavy: B1 heavy with Y148S, L150A, Y189V
light: B1 light with T132W, T173Y
chain: B1 chain
notes: hu425 Fv; one Fab arm only; also called KiH2 variant 2
B11: one-armed domain-exchanged KiH antibody with SEED CH3 domains in the Fab, Variant 1 (antibody)
heavy: not shown
light: B4 light
chain: not shown
notes: hu425 Fv; one Fab arm only; also called one-armed KiH antibody, CH3-SEED variant 1
B12: one-armed domain-exchanged KiH antibody with Charge pair CH3 domains in the Fab, Variant 1 (antibody)
heavy: not shown
light: B1 light with D122E, L124M, K158D, T173Y, K175D
chain: not shown
notes: hu425 Fv; one Fab arm only; also called one-armed KiH antibody, Charge pair variant 1
B13: one-armed domain-exchanged KiH antibody with Azymetric CH3 domains in the Fab, Variant 1 (antibody)
heavy: not shown
light: B1 light with T116V, D122E, L124M, T132L, K158L, T160W, T173Y
chain: not shown
notes: hu425 Fv; one Fab arm only; also called one-armed KiH antibody, CH3-Azymetric variant 1
B14: one-armed domain-exchanged KiH antibody with Charge pair CH3 domains in the Fab, Variant 2 (antibody)
heavy: not shown
light: B1 light with D122K, L124M, D165K, T173Y
chain: not shown
notes: hu425 Fv; one Fab arm only; also called one-armed KiH antibody, Charge pair variant 2
B15: one-armed domain-exchanged KiH antibody with Azymetric CH3 domains in the Fab, Variant 2 (antibody)
heavy: not shown
light: B1 light with T116V, L117Y, D122E, L124M, F171A, T173V
chain: not shown
notes: hu425 Fv; one Fab arm only; also called one-armed KiH antibody, CH3-Azymetric variant 2
B16: one-armed domain-exchanged KiH antibody with SEED CH3 domains in the Fab, Variant 2 (antibody)
heavy: not shown
light: B2 light
chain: not shown
notes: hu425 Fv; one Fab arm only; also called one-armed KiH antibody, CH3-SEED variant 2
B17: One-armed anti-CD16 with the unengineered 3G8 Fab fused to the SEED AG heavy chain (antibody)
heavy: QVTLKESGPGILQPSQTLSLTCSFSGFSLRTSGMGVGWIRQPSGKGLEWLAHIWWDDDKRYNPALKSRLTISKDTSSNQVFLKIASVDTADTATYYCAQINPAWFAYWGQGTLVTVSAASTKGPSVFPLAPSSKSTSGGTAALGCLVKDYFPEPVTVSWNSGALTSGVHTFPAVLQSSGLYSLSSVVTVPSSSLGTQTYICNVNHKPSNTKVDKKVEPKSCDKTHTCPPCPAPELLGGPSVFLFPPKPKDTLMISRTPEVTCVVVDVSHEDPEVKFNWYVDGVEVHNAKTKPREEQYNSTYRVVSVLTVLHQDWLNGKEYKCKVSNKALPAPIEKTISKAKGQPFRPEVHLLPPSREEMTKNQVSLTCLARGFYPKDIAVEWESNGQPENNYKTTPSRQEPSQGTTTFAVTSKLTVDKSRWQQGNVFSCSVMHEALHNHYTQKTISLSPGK
chain: B1 chain
light: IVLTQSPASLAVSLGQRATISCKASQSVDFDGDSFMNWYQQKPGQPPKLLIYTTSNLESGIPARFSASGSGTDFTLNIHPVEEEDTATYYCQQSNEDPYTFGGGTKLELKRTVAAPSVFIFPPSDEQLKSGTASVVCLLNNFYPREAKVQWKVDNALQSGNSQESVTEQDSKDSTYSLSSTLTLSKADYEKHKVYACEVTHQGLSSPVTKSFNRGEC
notes: One Fab arm only; also called one-armed anti-CD16 antibody

These binders were tested against T1, EGFR (on EGFR-expressing A431 cells) (UniProt P00533 25-1210, limits assumed) (assay: flow cytometry on A431 cells).
T1 construct: whole, on cells; A431 is a human cell line; also called EGFR-positive cells; EGFR-overexpressing A431 cells

Question: Does B1 bind?
Answer: Result: binds

Question: Does B2 bind?
Answer: Result: binds

Question: Does B3 bind?
Answer: Result: binds

Question: Does B4 bind?
Answer: Result: binds

Question: Does B5 bind?
Answer: Result: binds

Question: Does B6 bind?
Answer: Result: binds

Question: Does B7 bind?
Answer: Result: binds

Question: Does B8 bind?
Answer: Result: binds

Question: Does B9 bind?
Answer: Result: binds

Question: Does B10 bind?
Answer: Result: binds

The binders below were run against T1, EGFR (on EGFR-expressing A431 cells) (assay: flow cytometry on EGFR-positive A431 cells).

Question: Does B11 bind?
Answer: Result: binds

Question: Does B12 bind?
Answer: Result: binds

Question: Does B13 bind?
Answer: Result: binds

Question: Does B14 bind?
Answer: Result: binds

Question: Does B15 bind?
Answer: Result: binds

Question: Does B16 bind?
Answer: Result: binds

What follows are binders tested against T2, CD16a receptor (FcγIIIa) (UniProt P08637 17-254, limits assumed) (assay: CD16a HTRF cellular binding assay, competition with labeled human IgG).
T2 construct: whole, on cells
Experimental: FIG. 14: Binding of antibodies to CD16a receptor. Binding was measured using CD16a HTRF cellular binding assay (CisBio). Measurement was performed in duplicates.

T2 sequence (P08637 17-254 limits assumed): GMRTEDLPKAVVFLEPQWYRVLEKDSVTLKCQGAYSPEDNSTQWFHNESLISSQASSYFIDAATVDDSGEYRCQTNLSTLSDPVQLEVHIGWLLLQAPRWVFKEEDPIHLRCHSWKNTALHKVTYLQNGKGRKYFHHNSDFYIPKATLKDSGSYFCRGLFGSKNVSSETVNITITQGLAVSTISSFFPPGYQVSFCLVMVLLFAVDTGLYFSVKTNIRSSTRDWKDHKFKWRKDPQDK

Question: For B17, which IC50 is on record?
Answer: Its IC50 is about 0.1 nM.
